Target: human kallikrein 7 variant hK7-2.7 (human) (UniProt P49862)
UniProt P49862, sequence (P49862 30-253 Q52R/N119S/K129G/V157G/L189Q/Q228R/G233V): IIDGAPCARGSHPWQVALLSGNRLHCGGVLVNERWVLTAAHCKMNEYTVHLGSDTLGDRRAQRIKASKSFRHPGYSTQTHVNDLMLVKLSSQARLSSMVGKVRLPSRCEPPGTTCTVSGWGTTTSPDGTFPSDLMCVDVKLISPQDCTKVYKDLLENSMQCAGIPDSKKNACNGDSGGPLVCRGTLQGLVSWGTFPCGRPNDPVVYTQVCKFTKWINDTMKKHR

- inhibition of Aβ8 FRET reporter cleavage (5 nM protease, 200 nM substrate, 37°C): > 130 nM
Substance: lympho-epithelial Kazal-type related inhibitor (LEKTI) fragment consisting of domains 10–15 (domain or fragment)

From article PMC13012646
